From the DeepSol protein solubility set

Assay: soluble on expression in E. coli; label from the status in PepcDB or PDB records

Soluble on expression in E. coli, soluble:
MEFSMNATVEQLAPVEQQATTDWVVAALYQFKEVADAADLQQRLLDLVKTINLCGTLIVASEGINGTVAGDRHAIDTIREFLLNEGFHAMEYKESHSAEKPFRKMKIKLKQEIVTLGVEVKPRDLVGHYLDPKEWNELISRDDVILVDTRNDYEYKAGTFKGAIDPKTETFREFPDYVKQNLEQHKDKKIAMFCTGGIRCEKSTSLLLQEGFNEVYHLKGGILKYLEETPAEESLWEGECFVFDGRTAVTHGVEEGQNVKCHACGWPLTPEEVALPSYEHGVSCVYCIEKTTEKQKEGFRMRQSQIAAAKRKRLLEHHHHHH
MSLADLTSLSIEHLRSPRLYTHRLILRPWLVQDRARFAELNADPLVMEFFPSCLDRAQSDALLRRIDAHFAEHGFGWWALQVKGGDPFIGYVGLEVVDFDAPFVPAVAIGWRLAAEHWAEGFAHEAAEAALSYAFDTLGLDQVVAFTVPANENSLGLMERLGMHRDPTDDFEHPDLPPGHRLRHHVLYRLTREDWLRREGGSHHHHHH
MSLNTIIQKAKETHELSRDEIIALLKDDSINEELFKAADEVRKKYLGDEVHLRGLIEFTNICKRNCMYCGLRRDNKNLNRYRLSHEEIIDFAKKAVGYGYKTLVLQGGEDDYYTVERLVPIVKDLKALGVALTLSIGERPFEEYEALKKAGADRFLLRIETTDRELYEELDPGMSHENRIQCLKNLRKLGYEVGSGCLVGLPGQKIESLADDILFFKELDVDMNGIGPFIPNEDTPLKDAEGGQFELALKVMAIVRLLLPDINIPATTAMETLNKQGRVIALQCGANVVMPNVTEGEYRKLYALYPGKICTGDTPAHCRGCISGKIRGIGRIVSDGPGFRANGFKPKTEGHHHHHH
MDLIAPEDVVVTLSHAGYAKRQPVSAYRAQRRGGRGRSAASTKEEDFIDQLWLVNTHDTLLTFTSSGKVFWLPVHQLPEAGSNARGRPIINWIPLESGERVQAVLPVREYADNRYVFMATRNGTVKKTPLSEFAFRLARGKIAINLDEGDALVGVALTDGDRDVLLFASNGKTVRFGESTVRSMGRTATGVRGIRLAKGEEVVSLIVSERAGGVEDEVEDESAEEVVETTDGAEPAVIDVADNGDVAYILTATENGYGKRTPLAEYPRKGRGTQGVIGIQTTERNGKLVRAVLLGSTDEVMLISDGGTLVRTRGSEISRVGRNTQGVTLIRLSKGEKLQAVERLDASLEEPEDVVDEAVAITSDAPPAEG
MSLEINKGEGAVLGKEFFCEEEPGYLIEEEEEKELLEFISSGNLEIDRRLEGGIPAGSLCLLEGANDSGKSIFLQQIIWGALNQDKTVLFLTTEKTSKEVLNQMESLKRGISDYFIIGRSKIFEINAGYVEENPRLSESLLQVLLECIQRCEEELVLIDSLTIFAVNASENAVLNFFTECVKLCDRGKTILISVHGYAFSQAVLYRLRSVCSACLELRIEQVGDQWVKTMEIQKLRGARKTTGNLLSFDVDSEFGLKIIPVSKIKAEGHHHHHH
VDREQLVQKARLAEQAERYDDMAAAMKNVTELNEPLSNEERNLLSVAYKNVVGARRSSWRVISSIEQKTSADGNEKKIEMVRAYREKIEKELEAVCQDVLSLLDNYLIKNCSETQYESKVFYLKMKGDYYRYLAEVATGEKRATVVESSEKAYSEAHEISKEHMQPTHPIRLGLALNYSVFYYEIQNAPEQACHLAKTAFDDAIAELDTLNEDSYKDSTLIMQLLRDNLTLWTSDQQDDDGGEGNN
MAHHHHHHMGTLEAQTQGPGSMSFSNVPAGKDLPQDFNVIIEIPAQSEPVKYEADKALGLLVVDRFIGTGMRYPVNYGFIPQTLSGDGDPVDVLVITPFPLLAGSVVRARALGMLKMTDESGVDAKLVAVPHDKVCPMTANLKSIDDVPAYLKDQIKHFFEQYKALEKGKWVKVEGWDGIDAAHKEITDGVANFKK
GAMGMTTYLEFIQQNEERDGVRFSWNVWPSSRLEATRMVVPVAALFTPLKERPDLPPIQYEPVLCSRTTCRAVLNPLCQVDYRAKLWACNFCYQRNQFPPSYAGISELNQPAELLPQFSSIEYVVLRGPQMPLIFLYVVDTCMEDEDLQALKESMQMSLSLLPPTALVGLITFGRMVQVHELGCEGISKSYVFRGTKDLSAKQLQEMLGLSKVPVTQATRGPQVQQPPPSNRFLQPVQKIDMNLTDLLGELQRDPWPVPQGKRPLRSSGVALSIAVGLLECTFPNTGARIMMFIGGPATQGPGMVVGDELKTPIRSWHDIDKDNAKYVKKGTKHFEALANRAATTGHVIDIYACALDQTGLLEMKCCPNLTGGYMVMGDSFNTSLFKQTFQRVFTKDMHGQFKMGFGGTLEIKTSREIKISGAIGPCVSLNSKGPCVSENEIGTGGTCQWKICGLSPTTTLAIYFEVVNQHNAPIPQGGRGAIQFVTQYQHSSGQRRIRVTTIARNWADAQTQIQNIAASFDQEAAAILMARLAIYRAETEEGPDVLRWLDRQLIRLCQKFGEYHKDDPSSFRFSETFSLYPQFMFHLRRSSFLQVFNNSPDESSYYRHHFMRQDLTQSLIMIQPILYAYSFSGPPEPVLLDSSSILADRILLMDTFFQILIYHGETIAQWRKSGYQDMPEYENFRHLLQAPVDDAQEILHSRFPMPRYIDTEHGGSQARFLLSKVNPSQTHNNMYAWGQESGAPILTDDVSLQVFMDHLKKLAVSSAA
MSLTQVHFTLKSEEIQSIIEYSVKDDVSKNILTTVFNQLMENQRTEYIQAKEYERTENRQSQRNGYYERSFTTRVGTLELKVPRTRDGHFSPTVFERYQRNEKALMASMLEMYVSGVSTRKVSKIVEELCGKSVSKSFVSSLTEQLEPMVNEWQNRLLSEKNYPYLMTDVLYIKVREENRVLSKSCHIAIGITKDGDREIIGFMIQSGESEETWTTFFEYLKERGLQGTELVISDAHKGLVSAIRKSFTNVSWQRCQVHFLRNIFTTIPKKNSKSFREAVKGIFKFTDINLAREAKNRLIHDYIDQPKYSKACASLDDGFEDAFQYTVQGNSHNRLKSTNLIERLNQEVRRREKIIRIFPNQTSANRLIGAVLMDLHDEWIYSSRKYINFDKEGHHHHHH
SRVQILKDFVKQHFPATPLLDYALEVEKITTSKKPNLILNVDGFIGVAFVDMLRNCGSFTREEADEYVDIGALNGIFVLGRSMGFIGHYLDQKRLKQGLYRHPWDDISYVLPEHMSM
SLSELMGKRVLIIDDNLTSQKILINQAQSWGMFTCAVDSGEKALEWLKRGITFDVAILDMNLPDMNGLELVREIRKQPNCTRLPLIMLSAITETEKTFQSSEEEFVAVLCKPVQRSQLYNVLMEIFSEIPRAPIRVTEG

Soluble on expression in E. coli, not soluble:
MWYHRLSHLHSRLQDLLKGGVIYPALPQPNFKSLLPLAVHWHHTASKSLTCAWQQHEDHFELKYANTVMRFDYVWLRDHCRSASCYNSKTHQRSLDTASVDLCIKPKTIRLDETTLFFTWPDGHVTKYDLNWLVKNSYEGQKQKVIQPRILWNAEIYQQAQVPSVDCQSFLETNEGLKKFLQNFLLYGIAFVENVPPTQEHTEKLAERISLIRETIYGRMWYFTSDFSRGDTAYTKLALDRHTDTTYFQEPCGIQVFHCLKHEGTGGRTLLVDGFYAAEQVLQKAPEEFELLSKVPLKHEYIEDVGECHNHMIGIGPVLNIYPWNKELYLIRYNNYDRAVINTVPYDVVHRWYTAHRTLTIELRRPENEFWVKLKPGRVLFIDNWRVLHGRECFTGYRQLCGCYLTRDDVLNTARLLGLQA
MEVSKIRIHDLPEEERPRERLIKNGPESLSNAELLGIVLRTGSREENVISLCSRILMEYNIKQLSLANVSKLMQVNGIGKAKAAQIAAVFELARRLETFVEEPKRKISSPKDVYTLMYPKMREQKKEKFITLYLDTKNQILKEEVVSIGSLNASIVHPREVFKSALMESSASVIMVHNHPSGDPSPSREDIMVTEKLVEGGKLLGIDILDHIIIGDGRYVSLKDEGFVK
MSLNSTFSIVDLETTAPFKEGGHIIQIGISFVKNWKIINNFQTMVNPGVKIPEQIVDLTGIKNEDVENAPYFEDLARMIHDQLSGTVFVAHNVRYDFPYLNGEFARIKMRRLRLEYVDTVQLAQIVFPTMNSYKLDELVSKLGINLPRHHRADQDASATAQLFLKIHEHLQEFPQNTLNNLINHSKSLLGNTETIFQLSKGKRTFPGDRYGPFDIARLKKIDKGQLIKWIEAKKQSSLSKPLPATVLRPRQESFANILQSKITGKNNKIFSVFSRPRFGKTNAYLDLAVKIAAKGYKILIIEENYLRRRSTFQKSQSLFPENKDLFQIPITRKDFVSLDKLADAFLTEDNPSRQLAKLRVISWLLKSRTGNLNEFVNGFPEPLFNFFSDQDSPNKFDYFERSISSYTFPSIAITDLDSFLRTKNEFSREYNLFIFDVDKGVSNLIDMLPFFSKKIILFTQAQSYIKNWYSIRDFSDMNSVILSLGSELKEGHHHHHH
MSTSTAPSSASSDADSLNHDENPIKAVIFDYGEVMWMQSRNVHVYRKIEEDNKLFDNSLIPTLVSKELSSILPKGFQEDLLTGIYTAKDFDRLFLSAYNRKFGSQVESLKFFSATEYDNDAVYEEAVLTACQKLRERGVKTILMLDTYHVDEKRNGRRIPNMEKYFDHVIESCKEGVKKPDPRFYQIALDCVDVQPEEVIYIDDSKINCESAAVLGIRYIQVFNSMDMLEDLQEILGFDLD
MGSDKIHHHHHHFGKQSKPTPNFAKKSDAYSADDDRVPNLVDDDEEEIIGDEEDDVNQPGPSGSQSNPEPQDEEENAEQQSANSSQSSAAEEEDDEHVVPENEPVKPTEEFAKKSPKNTGGAKRRTARRGD
MSLMPPFLRILGIETSCDETAASIVVRHADGRGEIVSDVVLSQLEEHSAYGGVVPEIAARAHVEALDTLVEEALDQAGVKLADVDAIAATSGPGLIGGLLVGLMTGKAIAKAAGKPLYAINHLEGHALTARLTDGLSFPYLMLLVSGGHTQLVLVRGVGEYERWGTTIDDALGEAFDKTAKLLGLPYPGGPAVENAAAKGDPDRFPLPRPMVGEARLDFSFSGLKTAVRQAATAIAPLSEQDIADICASFQKAVSRTLKDRIGRGLARFKVEFPHINGEPALVVAGGVAANQEIRQTLQALCDTHGFRFVAPPHRLCTDNAAMIAWAGLERMAEGRQADALEVAPRSRWPLDGSAETLIGFGKRGAKAEGHHHHHH
GPGSMGTMKDKNKCTFRYFEVLPIDHEPEYQNGYVCDICFMEYSEGPFFHCSKSGKDVCLRCGGKMGLTPFTALVSKVMRPTVYWSESESSRAIALCYQIHRDILGCHFIDGANLLISTRDDLPSYFIDSNSCIEKSIVLSRSDIERRFPWAGEVAEVMGVNAVSFHETSACNDQSRLCFLSSFRVEGAFIEFRFSDGFCELVHCENGTIVAIRDSAVLSCFLMGLPVRWGRSLPKAASSVLEWYLKGGQR
MAHHHHHHMLQRLQLFRSTLVNFLEWRNFSDVVHGCYVRVLLEMRSTEENRRESPDNYYIALVKGAQRGPVYSGFSADAVTTEWHIVIELPPCFRSTQNGNVVQLNSISNSPFRQAEYQNWVDMTNETRELSFPSLPQLQFRLGMLEEHKQQALTPEPRRHRNGEDAEAAALREWALEEKRKRITEEIMVTHVKLRRIDQLKALSLEDLQEVEREILDLITGVRISINERSKCMLCHNRICTEICYPCKHQVLCKDCAKSIRGRCPAPKCKTPVQYTFEAFTS
MGSDKIHHHHHHVRIAILSQGPQLYSTKRLVEAALARGHEVKVINPLKCYMNINMTKPSIHMAGKDLGHFDAVIPRIGASVTFYGSAVLRQFEMMGVYAVNGSIGIARSRDKLRSMQLLSRQGIGLPITGFANKPSDIPDLIDMVGGAPLVVKLLEGTQGIGVVLAETRKAAESVLEAFMGLKANIMVQEYIAEAQGADIRCFVLGDKVIAAMKRQAKPGEFRSNLHRGGSATLVKLTPEERSVALRAAKTMGLNIAGVDLLRSNHGPVVMEVNSSPGLEGIEKATQKDVADAIICFMEKNANKSIKSAQ
